Experiment: soluble fraction after stress (log2 fold change); higher = more stays soluble; pooled small domains, quantitative proteomics
Details: stress: 75 degC
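Further: 20 min heating vs room temperature control held 20 min.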

Sequence | soluble fraction (log2)
HMEWNPEKQHLLENYITNYSRQLNDTGLFYKNLDWNYIFNLVGVDDQEFLMLKIDEIYDESINVY | -1.74
HMEWNREQLEQIVLQHIRKHGFITRATYTELTGRLKNSALADLKSFAAEGIIKRVGRGNQMHFIVPL | -2.35
HMEWTDHLAEELRSLAVEGEHLEIIANKLGISPGSARAKLVNLNIYNDYQLAHIERLEADTLQAK | -0.349
HMEYFDDEELDRYKGRTSDSFTDDEAEEFREVMMTMHPEEVKAWNRSLILRDVAMPDQIKDDYIMLAG | -0.141
HMEYKYNPADYPYPLNEDIEKVYSAYREKSIGKLEAAVQNLYYTLKQARRDNILSDVKVNEMQQYFLALRN | -0.857
HMEYNLTLEELNRDLYIRGEIWNVGDVVKTTDGDEGTIIRKGTNYVVFEDLRRVWLHNLEEVK | -1.51
HMEYREFEAMTIRAIATLPPTQGHVIMLSRFEGLDNKEIALRLNLSLQTVKNTLTQGLKELKNKMRKLP | -2.02
HMEYSAAYDRELESIFNLTERGKWEEAEAEVGLLLQQYPEDKTLLRISEWVATQKTILREQAIEDRIRS | -0.0776
HMEYSYKLIDLLVDRFSEEGVDPEEAREYINLFHRFSQGLDPDKRDITKYSWDELYRTVNDKKDS | 0.664
HMEYTVNHYPEKHRFEVVEDGLTAYVEYRLRGDALDIIHTIVPKNLEGRGIAATLVETAYKYAKEQ | -1.27
HMFAAIFADDSGFTTRSKRFGPYVEEIAADWQAVKQLSDEDAKQALVPLVKKIELALSTLQQFVSSV | -0.166
HMFAATGTVNTEGSSLRLRAEASTSSSVLKQLSHGTQVDVLSGLVDGWYQVSYKGTTGYVSGEYLTVTE | -0.704
HMFADLNPDENYGQVYIRTNTIDNLYQTLLDNKTRIHPNGLLELKPWGQKEFSILDPDKNLLTFGES | -0.00771
HMFAERLKELRKMRRFSQHALAERLGISQQAVGKWETGKSTPDPATLREIADIFEVSVDLLLGR | -1.17
HMFDDEELDRFAGVPADAYLPADEDEFREVFYTMRPGEVVEWVRSLELRHIEIPNGIKDEIFMMIR | -3.97
HMFDEDKLIISIGSKVRIIREPYFGTIGKVVELPPELVKMDTEAMLRVAIIKLDDGEKVTIPRANLEVILS | -2.43
HMFDEVKDAARRLAALLDQAGGTLTLNDKSAPEEVAALTGMSKKVFKRALGHLMSRSEVVVADGRITKKD | -0.709
HMFDGRSDAEKTLDLIKTAIDNILKGGAIQEYKIGTRTAKKYDMAELQVLKGEYAAMVAREKQAETMA | -0.412
HMFDGVAAGKPAILDALEDAGGFLPLNSKSSVEEIQASFSFSKRVFKQLIGMLYKERKIVITDDGIRLAD | -0.279
HMFDGYQWLKRDIIRGVYQPEEKLRMSLLTNRYGLGVGPLREALSQLVAEHLVTVVSQKGYRVAPM | -0.387
HMFDKNKPVVVEGENAEVALKKVSKYFNVPTEKLDYTLLGQKSAGLLGIGSKVYQFKVWLKREIP | -0.249
HMFDLENIRLTLARRLNVAAHLRPKYVAGFTLLLKQNFPEQNAEDLLNRLEHNQWLKVNQREIEYSPRLLM | -1.63
HMFDPAKQMQRIRKYAGMNRKEFSEWLNIPYRTMTDWELGNRTMPVYLLELIVYKVNHEIANA | 0.588
HMFDREKFIKLGQEFARVAFENVNKRATDRALKTAAKHYGLPSADELLARLGSSEIAARDVVAELYPNL | -0.856
HMFDSYDIYDEAGNTVNTVKGKLSWGHLLEIYDRFDNHIGTVQERVLTFLPKFLMYINGQEIGEIR | -0.164
HMFDVNSMIAANIVAILKKQNRKQIDLAGALQTNKQTISKMLNGSRMINAIELKRIAEFLGVKMEELTKL | -2.23
HMFDVRWEQGYALAAAYAQEYGNLDVPRDYKTADGKKLGRWIQSQEQAYEQKKLSEEQISRLEMIGMQWG | -0.98
HMFEDEPSEREIRISTLLAAFLKQEDGGTAVSRERFLKENSDVAEDLQILLEMADMIQEMAGP | -0.546

Sequence | soluble fraction (log2)
HMFEKIDINFADIHQLKGLPLNSEQINSIIEYRNQNGFIENIYDLKNVNGISIDKVHELKSYIFIIDV | -2.58
HMFENPRALLEMMISLGNEQGLINMARDIVSAGEFRRLELAAGGDRRKLARMLIDHLVEVAPRLP | -0.915
HMFEQFEVENLQELQQEWGDKFNHNLEMARRAFMNFATPEAVKVLEETGMGNHPELLKVFARIGEVLAED | -0.968
HMFERINLIGVNGTTKKRSALVRLLDGEIVKIGVGDSLNGGQVVDISPATLTYLKSGKSIMLTLPK | -1.79
HMFGQRLRLARKRAGLSMQALAQRMSPPVTAQAISKYEADRMMPSSAVLVGLGKALGVSLDFLMGGQ | -2.14
HMFHFELNAAKQALEDRKTIDRAKGILMRQRGMSEDDAYKLLRTTAMSQNRKVIDVAQALVTAADLL | -0.632
HMFINTVELGRAIKRRREELGLSLRDVADVTNVSASTLSRIENGTGKPDADNIARLTGWLDMPIDRVM | -0.161
HMFIRINQTQNSPRKSVQIVESKRDGHKVRTKILRHVGIAMDDVELQKLKSLAQDIIAKMTVETENASKQ | -0.529
HMFKINQKVKLIAPLPYLKTSENMPMLRPPDLVAIDEIGEVLSLKSPETVEVRFRRGSFLIDIDKLEKVD | -1.77
HMFKYLLDTNIVIYVIKKRPIEVMGVFNQNANRMAISAITFSELQHGAEKSVRVQENLNAIEEFTTLIDI | -0.0448
HMFKYRELLDWAKNRFDDLEVSIAPKALALLVESIGTDLRLLDSEIQKLSMYKPLEMISTNDVEDLVA | -1.01
HMFLTDHEVSKVARKRAHAEYLSSLSWRQRTFGDHGERSKNFEAWYKEHSHLYETEKLYKELYKN | -1.03
HMFLTPLEEARLVIEEIVIPKNIAVDLSPRPSALRKQQHELIAHYQLKSFSVGNERTKRLRILPKVI | 0.229
HMFMLQAKRVPVSELENFKGIVAEDVVSQSRALILPRGSNLSWLSSSAMQNLSTRLALEGVESISIYL | -2.68
HMFMVAGHLSEKNGYFYAVINYNDSLGNRKTKWMSTGLTVKGNKKRAEAILAEKRRTFQPDEPV | -1.71
HMFNDPTMEDALVNLKGITNEVLSYLSSSKIKKLEELAEMSVPELKDIVENISDDEASALIMEARKPWF | -0.373
HMFNEFEDIPDIISAEGIDPAMREEVAANLKKYYKNPDAMLALAPLEREYYEKLVGILSEKIELKKEN | 0.802
HMFNFPEEVRVQLAKSEQLRNLLIPMSETVRDALSGEELWFGRTIFNTTSKKIESWTNPGVWVE | -1.39
HMFNIIARQEIDEILYEYKIENSEDYKNRDPEELAEIYENIKTVQENHDLSDDDVEELLKSIFSDY | -1.25
HMFNKTKVPNFIDMNYYEEIEGNSEYDKFNFADPITKNDDTKAPGTVIDQTPEKGTRIDEEKTVIQLTIA | 0.114
HMFNRAVSDNEALQVREHFDRDATVMSLAKKYGVSTVTIQRILLGKTYRNVGGPLFDKATLKKRMGN | -1.2
HMFNVKAYEKAVKSYITKRKPLGEALDEEIMDELSVKFGIVDDALEDLFKQIQDAGISIVDKDGNPSPLAL | -0.792
HMFPELEPDEQLIADLLRKTNNLQINIITVRTGLPINRVTALLFQMEMKGVVRPLAGGTYHLLV | -2.14
HMFPELSPEEQLIVEVLSKTNDLQVNLISVKTNIDISRLTSLLFTLEMKGVIKTFAGGMYHLL | -1.19
HMFPSLSPEEQAVVDVLQRNNDLQINMLSVQSGLTISRLTALLFQLEMKGVIKPLAGGMYHLL | -0.711
HMFPTLSPEEQRIVDQLAKENDLQANVIALRTALTIPQISALLFSLEMKGMVRLYAGGTYHLI | -4.6
HMFQPEQISKLNELETLVLDFIIKSPDKVQKATIRSLATQLHVSTTTIVRMSTKLGFNGWSELKFFLKNQS | -1.93
